Measurements reported in PMC4771738.

Experiments:
GFP-syntaxin 8 = GFP-syntaxin 8 (UniProt Q9UNK0); assay: co-IP; HEK 293 cells co-transfected with myc-tagged Rab and GFP fusion; lysis in 50 mM Tris pH 7.4, 150 mM NaCl, 1% Triton X-100; GFP fusions precipitated on GBP agarose beads, room temperature 1.5 h; blot for myc and GFP; co-IP efficiency = co-IP / input
GFP-dynactin 6 = GFP-dynactin 6 (UniProt O00399); assay: as above
Chain of UniProt O00399 (O00399 whole entry): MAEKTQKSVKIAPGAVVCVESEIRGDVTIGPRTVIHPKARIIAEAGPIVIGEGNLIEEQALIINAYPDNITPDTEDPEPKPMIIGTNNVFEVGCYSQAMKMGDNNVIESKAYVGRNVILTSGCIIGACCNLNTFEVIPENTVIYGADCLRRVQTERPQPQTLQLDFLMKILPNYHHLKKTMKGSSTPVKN

Chain of UniProt Q9UNK0 (Q9UNK0 whole entry, the tested form may be a part): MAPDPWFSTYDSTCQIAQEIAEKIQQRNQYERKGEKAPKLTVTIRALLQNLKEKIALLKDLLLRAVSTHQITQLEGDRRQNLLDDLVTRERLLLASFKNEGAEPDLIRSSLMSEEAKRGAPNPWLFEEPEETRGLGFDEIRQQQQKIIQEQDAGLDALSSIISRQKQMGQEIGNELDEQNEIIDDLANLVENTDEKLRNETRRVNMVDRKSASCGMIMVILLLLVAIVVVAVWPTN

A co-IP efficiency (co-IP divided by input) (GFP-syntaxin 8) of 1.9% and a co-IP efficiency (co-IP divided by input) (GFP-dynactin 6) of 2% were found for “myc-tagged GDP-locked Rab41/6d (from UniProt Q5JT25 1-222) (natural protein)” in this work.
A co-IP efficiency (co-IP divided by input) (GFP-syntaxin 8) of 3.3% and a co-IP efficiency (co-IP divided by input) (GFP-dynactin 6) of 2.7% were found for “myc-tagged GTP-locked Rab41/6d (from UniProt Q5JT25 1-222) (natural protein)” in this work.
